In the supplement of paper PMC7877785:
± gives the uncertainty stated by the source.

Test: self-splicing fitness, log relative to wild type (ln ratio); higher = more splicing; Tetrahymena group I intron in knt gene, E. coli kanamycin selection, DiMSum; sequences stand for … in CUCUCU…GGAGGGAAAAGUUAUCAGGCAUGCACCUGGUAGCUAGUCUUUAAACCAAUAGAUUGCAUCGGUUUAAAAGGCAAGACCGUCAAAUUGCGGGAAAGGGGUCAACAGCCGUUCAGUACCAAGUCUCAGGGGAAACUUUGAGAUGGCCUUGCAAAGGGUAUGGUAAUAAGCUGACGGACAUGGUCCUAACCACGCAGCCAAGUCCUAAGUCAACAGAUCUUCUGUUGAUAUGGAUGCAGUUCACAGACUAAAUGUCGGUCGGGGAAGAUGUAUUCUUCUCAUAAGAUAUAGUCGGACCUCUCCUUAAUGGGAGCUAGCGGAUGAAGUGAUGCAACACUGGAGCCGCUGGGAACUAAUUUGUAUGCGAAAGUAUAUUGAUUAGUUUUGGAGUACUCGUGGUCG
Outline: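 The eight P1ex-region nucleotides of an intron in the knt kanamycin-resistance gene on pET-22b(+) were all randomised and the library put into E. coli BL21(DE3). Six replicate transformations were grown overnight at 37°C or 30°C on LB agar with or without 25 μg/mL kanamycin, together with 100 μg/mL carbenicillin, 50 μM IPTG and 0.2% rhamnose. Colonies were pooled and amplicon-sequenced on an Illumina HiSeq 2500. Fitness from DiMSum is the error-weighted combination of wild-type-normalised replicate fold changes, kanamycin over none.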

Sequence	self-splicing fitness (ln) (30 °C)	self-splicing fitness (ln) (37 °C)
GCCCAGCAAUAUUACGGGCU	-3.75 ± 0.16	-2.81 ± 0.15
GCCCAGCAAUAUUACGGUAA	-0.279 ± 0.06	0.44 ± 0.068
GCCCAGCAAUAUUACGGUGU	-2.51 ± 0.067	-1.27 ± 0.076
GCCCAGCAAUAUUACGUACC	-1.05 ± 0.12	0.0161 ± 0.17
GCCCAGCAAUAUUACGUAGA	-0.69 ± 0.052	0.0571 ± 0.064
GCCCAGCAAUAUUACGUAUU	-2.02 ± 0.066	-0.786 ± 0.074
GCCCAGCAAUAUUACGUCCC	-1.49 ± 0.17	0.384 ± 0.17
GCCCAGCAAUAUUACGUCGC	-1.66 ± 0.095	-0.355 ± 0.092
GCCCAGCAAUAUUACGUGAG	-0.944 ± 0.043	-0.161 ± 0.056
GCCCAGCAAUAUUACGUGCA	-1.47 ± 0.083	-0.691 ± 0.083
GCCCAGCAAUAUUACGUGCG	-3.42 ± 0.21	-1.71 ± 0.17
GCCGAGCAAUAUUACGAACC	-0.807 ± 0.22	0.455 ± 0.41
GCCGAGCAAUAUUACGAAUA	–	-1.51 ± 0.47
GCCGAGCAAUAUUACGACAC	-1.4 ± 0.12	-0.338 ± 0.18
GCCGAGCAAUAUUACGACAG	-1.9 ± 0.22	-2.16 ± 0.23
GCCGAGCAAUAUUACGACCU	-2.33 ± 0.3	-1.54 ± 0.36
GCCGAGCAAUAUUACGAGAU	-2.65 ± 0.19	-1.66 ± 0.2
GCCGAGCAAUAUUACGAUUG	-2.48 ± 0.41	-2.24 ± 0.47
GCCGAGCAAUAUUACGCACC	-1.96 ± 0.23	-0.483 ± 0.21
GCCGAGCAAUAUUACGCCUU	-3.44 ± 0.27	-2 ± 0.36
GCCGAGCAAUAUUACGCGAU	-2.66 ± 0.2	-3.09 ± 0.37
GCCGAGCAAUAUUACGCGCA	-1.42 ± 0.19	-0.221 ± 0.14
GCCGAGCAAUAUUACGCGGU	-3.47 ± 0.18	-3.36 ± 0.42
GCCGAGCAAUAUUACGCGUA	-0.983 ± 0.069	-0.591 ± 0.066
GCCGAGCAAUAUUACGCGUU	-1.62 ± 0.076	-0.778 ± 0.095

Sequence	self-splicing fitness (ln) (30 °C)	self-splicing fitness (ln) (37 °C)
GCCGAGCAAUAUUACGCUGA	-1.88 ± 0.17	-0.952 ± 0.13
GCCGAGCAAUAUUACGGAUG	-1.38 ± 0.06	-0.937 ± 0.072
GCCGAGCAAUAUUACGGCCA	-1.6 ± 0.11	-1.52 ± 0.12
GCCGAGCAAUAUUACGGGAG	-3.67 ± 0.24	-2.18 ± 0.24
GCCGAGCAAUAUUACGGUGG	-3.52 ± 0.16	-3.27 ± 0.23
GCCGAGCAAUAUUACGUCGU	-0.646 ± 0.081	-0.197 ± 0.1
GCCGAGCAAUAUUACGUGAA	-1.74 ± 0.076	-0.417 ± 0.092
GCCUAGCAAUAUUACGAAGG	-3.05 ± 0.17	-2.65 ± 0.3
GCCUAGCAAUAUUACGACAC	-1.06 ± 0.21	-0.38 ± 0.27
GCCUAGCAAUAUUACGACAU	-2.109 ± 0.015	-1.02 ± 0.033
GCCUAGCAAUAUUACGAGCU	-1.03 ± 0.14	-1.51 ± 0.14
GCCUAGCAAUAUUACGAUAC	-2.39 ± 0.11	-0.543 ± 0.1
GCCUAGCAAUAUUACGCAAG	-3.71 ± 0.47	–
GCCUAGCAAUAUUACGCAGU	-1.77 ± 0.13	-0.206 ± 0.12
GCCUAGCAAUAUUACGCAUC	-0.219 ± 0.066	0.571 ± 0.091
GCCUAGCAAUAUUACGCAUG	-4.28 ± 0.36	-1.67 ± 0.15
GCCUAGCAAUAUUACGCCCU	-0.974 ± 0.097	0.335 ± 0.13
GCCUAGCAAUAUUACGCCGC	-2.48 ± 0.36	-1.5 ± 0.34
GCCUAGCAAUAUUACGCCGG	–	-3.09 ± 0.37
GCCUAGCAAUAUUACGGAUA	-1.01 ± 0.17	-0.705 ± 0.13
GCCUAGCAAUAUUACGGCAC	-1.31 ± 0.17	-0.195 ± 0.14
GCCUAGCAAUAUUACGGCGG	-3.45 ± 0.24	-2.44 ± 0.35
GCCUAGCAAUAUUACGGCUU	-3.8 ± 0.22	-1.08 ± 0.16
GCCUAGCAAUAUUACGGGCC	-4.2 ± 0.26	-3.41 ± 0.39
GCCUAGCAAUAUUACGGUAC	-2.66 ± 0.15	-0.822 ± 0.13

Sequence	self-splicing fitness (ln) (30 °C)	self-splicing fitness (ln) (37 °C)
GCCUAGCAAUAUUACGUGGC	-3.15 ± 0.32	-1.6 ± 0.33
GCCUAGCAAUAUUACGUUCC	-1.1 ± 0.17	0.341 ± 0.19
GCGAAGCAAUAUUACGAAAG	-4.38 ± 0.4	-1.14 ± 0.18
GCGAAGCAAUAUUACGAGAG	-3.95 ± 0.34	-1.91 ± 0.2
GCGAAGCAAUAUUACGAGUU	-3.19 ± 0.2	-2.16 ± 0.28
GCGAAGCAAUAUUACGAUGU	-2.82 ± 0.15	-1.42 ± 0.12
GCGAAGCAAUAUUACGCCAA	–	-1.82 ± 0.39
GCGAAGCAAUAUUACGCCGG	-1.91 ± 0.47	-0.944 ± 0.47
GCGAAGCAAUAUUACGCCUC	-2.7 ± 0.42	–
GCGAAGCAAUAUUACGCUUG	-1.45 ± 0.26	-1.56 ± 0.35
GCGAAGCAAUAUUACGGACA	-0.834 ± 0.13	-0.85 ± 0.13
GCGAAGCAAUAUUACGGAUU	-1.33 ± 0.13	-1.17 ± 0.15
GCGAAGCAAUAUUACGGUAC	-2.89 ± 0.17	-1.2 ± 0.15
GCGAAGCAAUAUUACGUAGU	-3.8 ± 0.34	-2.13 ± 0.18
GCGAAGCAAUAUUACGUAUC	-3.34 ± 0.3	-0.83 ± 0.14
GCGAAGCAAUAUUACGUCUU	-2.56 ± 0.15	-2.06 ± 0.13
GCGCAGCAAUAUUACGAAAU	-0.982 ± 0.075	-0.192 ± 0.095
GCGCAGCAAUAUUACGAACU	0.116 ± 0.11	0.476 ± 0.13
GCGCAGCAAUAUUACGAAGA	-1.64 ± 0.13	-0.808 ± 0.12
GCGCAGCAAUAUUACGACGU	-1.69 ± 0.091	-1.13 ± 0.13
GCGCAGCAAUAUUACGACUA	-0.643 ± 0.12	0.154 ± 0.11
GCGCAGCAAUAUUACGAGAU	-1.85 ± 0.089	-0.7 ± 0.11
GCGCAGCAAUAUUACGAUAC	-1.4 ± 0.081	-1.49 ± 0.11
GCGCAGCAAUAUUACGCAUU	-1.4 ± 0.077	-0.154 ± 0.1
GCGCAGCAAUAUUACGCGCC	-3.43 ± 0.26	-2.41 ± 0.39

Sequence	self-splicing fitness (ln) (30 °C)	self-splicing fitness (ln) (37 °C)
GCGCAGCAAUAUUACGCGCU	–	-1.41 ± 0.28
GCGCAGCAAUAUUACGGCAC	-0.436 ± 0.11	-0.634 ± 0.13
GCGCAGCAAUAUUACGGCAG	-3.47 ± 0.15	-2.85 ± 0.19
GCGCAGCAAUAUUACGGCUA	-0.44 ± 0.092	0.0852 ± 0.097
GCGCAGCAAUAUUACGGGUU	-1.71 ± 0.042	-0.67 ± 0.053
GCGCAGCAAUAUUACGGUAU	-0.825 ± 0.039	-0.0516 ± 0.054
GCGCAGCAAUAUUACGUACU	-1.32 ± 0.072	-0.505 ± 0.092
GCGCAGCAAUAUUACGUCCU	-0.435 ± 0.12	0.126 ± 0.14
GCGCAGCAAUAUUACGUCGC	-2.27 ± 0.14	-2.2 ± 0.27
GCGCAGCAAUAUUACGUUAC	-2.71 ± 0.14	-1.12 ± 0.14
GCGGAGCAAUAUUACGAACA	-2.71 ± 0.45	-2.78 ± 0.43
GCGGAGCAAUAUUACGACGG	-2.27 ± 0.19	-1.13 ± 0.2
GCGGAGCAAUAUUACGAGUU	-3.16 ± 0.31	-1.91 ± 0.25
GCGGAGCAAUAUUACGAUAG	-2.96 ± 0.38	-2.67 ± 0.44
GCGGAGCAAUAUUACGAUAU	-2.17 ± 0.14	-2.02 ± 0.18
GCGGAGCAAUAUUACGCAAG	-2.73 ± 0.38	-2.3 ± 0.31
GCGGAGCAAUAUUACGCAAU	-3.51 ± 0.43	–
GCGGAGCAAUAUUACGCGAA	–	-0.648 ± 0.23
GCGGAGCAAUAUUACGCGCU	-1.88 ± 0.4	–
GCGGAGCAAUAUUACGCGGU	-1.68 ± 0.44	–
GCGGAGCAAUAUUACGCUUC	-2.09 ± 0.38	–
GCGGAGCAAUAUUACGCUUU	-3.1 ± 0.31	-3.21 ± 0.28
GCGGAGCAAUAUUACGGACC	-1.77 ± 0.34	–
GCGGAGCAAUAUUACGGACG	-3.15 ± 0.47	-2.33 ± 0.42
